{
  "source": "IntAct's records for PubMed 24970085",
  "parents": {"B1": {"name": "Lysosome-associated membrane glycoprotein 1 (Homo sapiens), P11279 (parent)", "chain": "MAAPGSARRPLLLLLLLLLLGLMHCASAAMFMVKNGNGTACIMANFSAAFSVNYDTKSGPKNMTFDLPSDATVVLNRSSCGKENTSDPSLVIAFGRGHTLTLNFTRNATRYSVQLMSFVYNLSDTHLFPNASSKEIKTVESITDIRADIDKKYRCVSGTQVHMNNVTVTLHDATIQAYLSNSSFSRGETRCEQDRPSPTTAPPAPPSPSPSPVPKSPSVDKYNVSGTNGTCLLASMGLQLNLTYERKDNTTVTRLLNINPNKTSASGSCGAHLVTLELHSEGTTVLLFQFGMNASSSRFFLQGIQLNTILPDARDPAFKAANGSLRALQATVGNSYKCNAEEHVRVTKAFSVNIFKVWVQAFKVEGGQFGSVEECLLDENSMLIPIAVGGALAGLVLIVLIAYLVGRKRSHAGYQTI"}},
  "data": [
    {"variants_of": "B1", "conditions": "with glyc_lassj GPC", "values": [
      {"variant": "N76S", "effect of a mutation on the interaction": "disrupting interaction"}
    ]}
  ]
}
